In one data set the target is T1, hK2 (Homo sapiens, UniProt P20151).
T1 construct: made in house
In words: Hydrolysis of hK2 substrates by hK2. It counts as biochemical. The note with it: hK2 1 μg/ml, 50 mM Tris, 0.1 M NaCl, pH 7.8. As to the method:
(§1) Hydrolyses of particular hK2 substrates were carried out at a hK2 concentrations of 1 μg/ml in 50 mM Tris buffer, with 0.1 M NaCl, at pH 7.8. Serum hydrolysis measurements were carried out in 50% fresh human serum in 50 mM Tris buffer, with 0.1 M NaCl, at pH 7.8. The single letter amino acid code was used to designate the peptide sequences used for Table 4. The units FU are arbitrary fluorescence units. The entries “U.D.” were for measurements of less than 0.01 FU/hour.

A short description of data set [1]: Serum hydrolysis of hK2 substrates. It counts as in vitro ADME. The note with it: 50% fresh human serum in 50 mM Tris, 0.1 M NaCl, pH 7.8. As to the method:
as §1

Non-standard residues stand in square brackets, D forms with d. No end group written: not given here.

T1 sequence (P20151 25-261): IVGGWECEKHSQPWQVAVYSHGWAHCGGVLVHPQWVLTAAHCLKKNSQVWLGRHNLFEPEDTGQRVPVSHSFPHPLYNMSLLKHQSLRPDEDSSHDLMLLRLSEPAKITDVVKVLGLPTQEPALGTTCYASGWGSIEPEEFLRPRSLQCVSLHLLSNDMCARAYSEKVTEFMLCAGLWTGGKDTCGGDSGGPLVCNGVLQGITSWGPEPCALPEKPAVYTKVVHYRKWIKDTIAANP

As to “SEQ ID NO: 87: hK2 substrate peptide, single letter sequence P7-P′1 (GSNTEKHL; listed as Homo sapiens)”, the “hK2 Hydrolysis Rate” value in the data set with hK2 (Table 4) is reported as 80.54 FU/hr/m. The “Serum Hydrolysis Rate” value in data set [1] (Table 4) is recorded as 0.03 FU/hr.
Take “SEQ ID NO: 109: hK2 substrate peptide, single letter sequence P6-P′1 (GGKAKRL; listed as Homo sapiens)”: the “hK2 Hydrolysis Rate” value with hK2 (Table 5) came to 1788.9 FU/hr/m. Also, the “Serum Hydrolysis Rate” value in data set [1] (Table 5) stood at 0.14 FU/hr.
Take “SEQ ID NO: 76: hK2 substrate peptide, single letter sequence P7-P′1 (GHEQKGRL; listed as Homo sapiens)”: in the data set with hK2 (Table 4), the “hK2 Hydrolysis Rate” value was 650.80 FU/hr/m. In addition, the “Serum Hydrolysis Rate” value in data set [1] (Table 4) is listed as 0.04 FU/hr.
In the case of “SEQ ID NO: 79: hK2 substrate peptide, single letter sequence P7-P′1 (GKDVSGRL; listed as Homo sapiens)”, the “hK2 Hydrolysis Rate” value in the data set with hK2 (Table 4) came out at 242.91 FU/hr/m. In addition, in data set [1] (Table 4), the “Serum Hydrolysis Rate” value was found to be 0.05 FU/hr.
For “SEQ ID NO: 66: hK2 substrate peptide, single letter sequence P7-P′1 (GHEQKRRL; listed as Homo sapiens)”, the “hK2 Hydrolysis Rate” value with hK2 (Table 4) was 5966.31 FU/hr/m; in the data set with hK2 (Table 5) it was 3366.5 FU/hr/m. The figures for the “Serum Hydrolysis Rate” value in data set [1] (Table 4) and in data set [1] (Table 5) were 0.17 FU/hr and “UD (The entries “U.D.” were for measurements of less than 0.01 FU/hour)”, respectively.
With “SEQ ID NO: 92: hK2 substrate peptide, single letter sequence P7-P′1 (GSQNQVHL; listed as Homo sapiens)”, the “hK2 Hydrolysis Rate” value with hK2 (Table 4) is 32.48 FU/hr/m. The “Serum Hydrolysis Rate” value in data set [1] (Table 4) is listed as 0.03 FU/hr.
As to “SEQ ID NO: 118: hK2 substrate peptide, single letter sequence P6-P′1 (GGKARNL; listed as Homo sapiens)”, in the data set with hK2 (Table 5), the “hK2 Hydrolysis Rate” value came out at 828.4 FU/hr/m. Further, the “Serum Hydrolysis Rate” value in data set [1] (Table 5) worked out at 0.25 FU/hr.
On to “SEQ ID NO: 81: hK2 substrate peptide, single letter sequence P7-P′1 (GSKGHFHL; listed as Homo sapiens)”, for which the “hK2 Hydrolysis Rate” value with hK2 (Table 4) came out at 171.47 FU/hr/m. In data set [1] (Table 4), the “Serum Hydrolysis Rate” value amounted to 0.10 FU/hr.
In the same order, the values of “SEQ ID NO: 71: hK2 substrate peptide, single letter sequence P7-P′1 (GSKGHRRL; listed as Homo sapiens)” are 2649.96 FU/hr/m and “UD (The entries “U.D.” were for measurements of less than 0.01 FU/hour)”.
On to “SEQ ID NO: 101: hK2 substrate peptide, single letter sequence P6-P′1 (GGHKRRL; listed as Homo sapiens)”, for which the “hK2 Hydrolysis Rate” value with hK2 (Table 5) stood at 2428.4 FU/hr/m. In addition, the “Serum Hydrolysis Rate” value in data set [1] (Table 5) was “UD (The entries “U.D.” were for measurements of less than 0.01 FU/hour)”.
As to “SEQ ID NO: 84: hK2 substrate peptide, single letter sequence P7-P′1 (GSYEERHL; listed as Homo sapiens)”, the “hK2 Hydrolysis Rate” value with hK2 (Table 4) is given as 42.87 FU/hr/m. For the same substance, the “Serum Hydrolysis Rate” value in data set [1] (Table 4) is given as 0.09 FU/hr.
Regarding “SEQ ID NO: 113: hK2 substrate peptide, single letter sequence P7-P′1 (GHEQKRRE; listed as Homo sapiens)”, the “hK2 Hydrolysis Rate” value with hK2 (Table 5) is recorded as 1473.8 FU/hr/m. Moreover, the “Serum Hydrolysis Rate” value in data set [1] (Table 5) is reported as “UD (The entries “U.D.” were for measurements of less than 0.01 FU/hour)”.
In the same order, the values of “SEQ ID NO: 120: hK2 substrate peptide, single letter sequence P6-P′1 (GGKAKKL; listed as Homo sapiens)” are 77.9 FU/hr/m and “UD (The entries “U.D.” were for measurements of less than 0.01 FU/hour)”.
Turning to “SEQ ID NO: 77: hK2 substrate peptide, single letter sequence P7-P′1 (GSNTERRL; listed as Homo sapiens)”, the “hK2 Hydrolysis Rate” value with hK2 (Table 4) amounted to 592.34 FU/hr/m. Besides, in data set [1] (Table 4), the “Serum Hydrolysis Rate” value is “UD (The entries “U.D.” were for measurements of less than 0.01 FU/hour)”.
In the case of “SEQ ID NO: 108: hK2 substrate peptide, single letter sequence P7-P′1 (GHEQARRL; listed as Homo sapiens)”, the “hK2 Hydrolysis Rate” value with hK2 (Table 5) came to 1956.4 FU/hr/m. Besides, the “Serum Hydrolysis Rate” value in data set [1] (Table 5) worked out at 0.14 FU/hr.
Turning to “SEQ ID NO: 78: hK2 substrate peptide, single letter sequence P7-P′1 (GSYEERRL; listed as Homo sapiens)”, the “hK2 Hydrolysis Rate” value with hK2 (Table 4) worked out at 324.75 FU/hr/m. The “Serum Hydrolysis Rate” value in data set [1] (Table 4) came to 0.04 FU/hr.
As to “SEQ ID NO: 93: hK2 substrate peptide, single letter sequence P7-P′1 (GHAQKRRL; listed as Homo sapiens)”, in the data set with hK2 (Table 5), the “hK2 Hydrolysis Rate” value is 3665.1 FU/hr/m. In data set [1] (Table 5), the “Serum Hydrolysis Rate” value came out at 0.08 FU/hr.
In the case of “SEQ ID NO: 90: hK2 substrate peptide, single letter sequence P7-P′1 (GPAHQDHL; listed as Homo sapiens)”, the “hK2 Hydrolysis Rate” value with hK2 (Table 4) is 48.06 FU/hr/m. Further, in data set [1] (Table 4), the “Serum Hydrolysis Rate” value turned out to be 0.00 FU/hr.
For the substance “SEQ ID NO: 69: hK2 substrate peptide, single letter sequence P7-P′1 (GPAHQRRL; listed as Homo sapiens)”, the “hK2 Hydrolysis Rate” value with hK2 (Table 4) is listed as 4017.81 FU/hr/m. In addition, the “Serum Hydrolysis Rate” value in data set [1] (Table 4) amounted to 0.10 FU/hr.
Take “SEQ ID NO: 112: hK2 substrate peptide, single letter sequence P6-P′1 (GGKARKL; listed as Homo sapiens)”: the “hK2 Hydrolysis Rate” value with hK2 (Table 5) is reported as 1602.4 FU/hr/m. The “Serum Hydrolysis Rate” value in data set [1] (Table 5) is listed as “UD (The entries “U.D.” were for measurements of less than 0.01 FU/hour)”.
Regarding “SEQ ID NO: 86: hK2 substrate peptide, single letter sequence P7-P′1 (GGGKAHHL; listed as Homo sapiens)”, in the data set with hK2 (Table 4), the “hK2 Hydrolysis Rate” value was found to be 70.15 FU/hr/m. Moreover, in data set [1] (Table 4), the “Serum Hydrolysis Rate” value is reported as 0.05 FU/hr.
Taken in the same sequence, the figures for “SEQ ID NO: 85: hK2 substrate peptide, single letter sequence P7-P′1 (GKDVSGHL; listed as Homo sapiens)” were 67.55 FU/hr/m and 0.05 FU/hr.
On to “SEQ ID NO: 117: hK2 substrate peptide, single letter sequence P6-P′1 (GGKARHL; listed as Homo sapiens)”, for which the “hK2 Hydrolysis Rate” value in the data set with hK2 (Table 5) amounted to 939.3 FU/hr/m. In data set [1] (Table 5), the “Serum Hydrolysis Rate” value was “UD (The entries “U.D.” were for measurements of less than 0.01 FU/hour)”.
Taken in the same sequence, the figures for “SEQ ID NO: 105: hK2 substrate peptide, single letter sequence P6-P′1 (GGKARRL; listed as Homo sapiens)” were 2171.2 FU/hr/m and “UD (The entries “U.D.” were for measurements of less than 0.01 FU/hour)”.
With “SEQ ID NO: 70: hK2 substrate peptide, single letter sequence P7-P′1 (GSKGHFRL; listed as Homo sapiens)”, the “hK2 Hydrolysis Rate” value in the data set with hK2 (Table 4) worked out at 3029.27 FU/hr/m. Also, the “Serum Hydrolysis Rate” value in data set [1] (Table 4) is 0.04 FU/hr.
In the same order, the values of “SEQ ID NO: 88: hK2 substrate peptide, single letter sequence P7-P′1 (GPAHQDRL; listed as Homo sapiens)” are 75.34 FU/hr/m and 0.06 FU/hr.
In the same order, the values of “SEQ ID NO: 83: hK2 substrate peptide, single letter sequence P7-P′1 (GPLILSRL; listed as Homo sapiens)” are 118.21 FU/hr/m and 0.07 FU/hr.
Consider “SEQ ID NO: 99: hK2 substrate peptide, single letter sequence P7-P′1 (GHEQKRRS; listed as Homo sapiens)”, for which the “hK2 Hydrolysis Rate” value in the data set with hK2 (Table 5) is given as 2638.5 FU/hr/m. Further, in data set [1] (Table 5), the “Serum Hydrolysis Rate” value is recorded as “UD (The entries “U.D.” were for measurements of less than 0.01 FU/hour)”.
In the same order, the values of “SEQ ID NO: 102: hK2 substrate peptide, single letter sequence P6-P′1 (GGKAFRL; listed as Homo sapiens)” are 2374.2 FU/hr/m and 0.07 FU/hr.
Taken in the same sequence, the figures for “SEQ ID NO: 100: hK2 substrate peptide, single letter sequence P6-P′1 (GGKKRRL; listed as Homo sapiens)” were 2583.0 FU/hr/m and “UD (The entries “U.D.” were for measurements of less than 0.01 FU/hour)”.
For “SEQ ID NO: 67: hK2 substrate peptide, single letter sequence P7-P′1 (GGGKARRL; listed as Homo sapiens)”, in the data set with hK2 (Table 4), the “hK2 Hydrolysis Rate” value was determined as 4784.22 FU/hr/m. Besides, the “Serum Hydrolysis Rate” value in data set [1] (Table 4) is 0.03 FU/hr.
In the case of “SEQ ID NO: 123: hK2 substrate peptide, single letter sequence P6-P′1, dR at P2 and P1 (GGKA[dR][dR]L; listed as Homo sapiens)”, in the data set with hK2 (Table 5), the “hK2 Hydrolysis Rate” value was 16.5 FU/hr/m. Also, the “Serum Hydrolysis Rate” value in data set [1] (Table 5) is “UD (The entries “U.D.” were for measurements of less than 0.01 FU/hour)”.
“SEQ ID NO: 68: hK2 substrate peptide, single letter sequence P7-P′1 (GGGKAHRL; listed as Homo sapiens)”: the “hK2 Hydrolysis Rate” value in the data set with hK2 (Table 4) turned out to be 4100.94 FU/hr/m. Besides, the “Serum Hydrolysis Rate” value in data set [1] (Table 4) was found to be 0.09 FU/hr.
